B1: Hairpin Ribozyme (parent)
chain: GUCCUCUUUCACGUGCGCGUGAAAGAGAGAAGUGAACCAGAGAAACACACGUUGUGGUAUAUUACCUGGUA

Variants of: B1
Assay: self-cleavage, relative activity (ratio to wild type); higher = more cleavage; co-transcriptional

Variant	self-cleavage
GUCCUCUUUCACGUGCGCGUGAAAGAGAGAAGUGGACCAGAGAAACACGCGUUGUGGUAUAUUACCUGGUA [A35G A49G]	0.433
GUCCUCUUUCACGUGCGCGUGAAAGAGAGAAGUGGACCAGAGAAACACCCGUUGUGGUAUAUUACCUGGUA [A35G A49C]	0.12
GUCCUCUUUCACGUGCGCGUGAAAGAGAGAAGUGCACCAGAGAAACACACGUUGUGGUAUAUUACCGGGUA [A35C U67G]	0.278
GUCCUCUUUCACGUGCGCGUGAAAGAGAGAAGUUAACCAGAGAAACACACUUUGUGGUAUAUUACCUGGUA [G34U G51U]	1.04
GUCCUCUUUCACGUGCGCGUGAAAGAGAGAAGUGCACCAGAGAAACACAGGUUGUGGUAUAUUACCUGGUA [A35C C50G]	0.37
GUCCUCUUUCACGUGCGCGUGAAAGAGAGAAGUGCACCAGAGAAACACAUGUUGUGGUAUAUUACCUGGUA [A35C C50U]	0.438
GUCCUCUUUCACGUGCGCGUGAAAGAGAGAAGUGGACCAGAGCAACACACGUUGUGGUAUAUUACCUGGUA [A35G A43C]	0.118
GUCCUCUUUCACGUGCGCGUGAAAGAGAGAAGUGCACCAGAGAAACAGACGUUGUGGUAUAUUACCUGGUA [A35C C48G]	0.131
GUCCUCUUUCACGUGCGCGUGAAAGAGAGAAGUGCACCAGAGAAACACACGUUGUGGUAUAUUACCUGUUA [A35C G69U]	0.189
GUCCUCUUUCACGUGCGCGUGAAAGAGAGAAGUGGACCAGAGAAACAAACGUUGUGGUAUAUUACCUGGUA [A35G C48A]	0.198
GUCCUCUUUCACGUGCGCGUGAAAGAGAGAAGUUAACCAGAGAAACACACGUUGUGGUAUAGUACCUGGUA [G34U U62G]	0.139
GUCCUCUUUCACGUGCGCGUGAAAGAGAGAAGUUAACCAGAGAAACACACGUUGUGAUAUAUUACCUGGUA [G34U G57A]	0.887
GUCCUCUUUCACGUGCGCGUGAAAGAGAGAAGUUAACCAGAGAAACACACGUUGUGCUAUAUUACCUGGUA [G34U G57C]	0.552
GUCCUCUUUCACGUGCGCGUGAAAGAGAGAAGUGGACCAGAGAAACACACGUUGCGGUAUAUUACCUGGUA [A35G U55C]	0.3
GUCCUCUUUCACGUGCGCGUGAAAGAGAGAAGUUAACCAGAGAAACACACGUUAUGGUAUAUUACCUGGUA [G34U G54A]	1.3
GUCCUCUUUCACGUGCGCGUGAAAGAGAGAAGUGCACCAGAGAAACACACCUUGUGGUAUAUUACCUGGUA [A35C G51C]	0.725
GUCCUCUUUCACGUGCGCGUGAAAGAGAGAAGUGGACCGGAGAAACACACGUUGUGGUAUAUUACCUGGUA [A35G A39G]	0.348
GUCCUCUUUCACGUGCGCGUGAAAGAGAGAAGUGGACCAGAGAAACACACGUUGUGGUAUAUUAACUGGUA [A35G C65A]	0.867
GUCCUCUUUCACGUGCGCGUGAAAGAGAGAAGUUAACUAGAGAAACACACGUUGUGGUAUAUUACCUGGUA [G34U C38U]	1.42
GUCCUCUUUCACGUGCGCGUGAAAGAGAGAAGUUAACGAGAGAAACACACGUUGUGGUAUAUUACCUGGUA [G34U C38G]	0.595
GUCCUCUUUCACGUGCGCGUGAAAGAGAGAAGUGGACCAGAGAAAAACACGUUGUGGUAUAUUACCUGGUA [A35G C46A]	0.125
GUCCUCUUUCACGUGCGCGUGAAAGAGAGAAGUGCACCAGAGAAACACACGUUGUGGUAUAUUACUUGGUA [A35C C66U]	0.558
GUCCUCUUUCACGUGCGCGUGAAAGAGAGAAGUUAACCAGAGAAACACACGUUGUGGUAUAUUACCUGAUA [G34U G69A]	0.93
GUCCUCUUUCACGUGCGCGUGAAAGAGAGAAGUGCACCAGAUAAACACACGUUGUGGUAUAUUACCUGGUA [A35C G42U]	0.342
GUCCUCUUUCACGUGCGCGUGAAAGAGAGAAGUGCACCAGAAAAACACACGUUGUGGUAUAUUACCUGGUA [A35C G42A]	0.129
GUCCUCUUUCACGUGCGCGUGAAAGAGAGAAGUGCACCAGAGAAACACACGUUGUGGUAUAUUACCUGGCA [A35C U70C]	1.01

Variant	self-cleavage
GUCCUCUUUCACGUGCGCGUGAAAGAGAGAAGUGCACCAGAGAAACACACGUUGUGGUAUAUUUCCUGGUA [A35C A64U]	0.192
GUCCUCUUUCACGUGCGCGUGAAAGAGAGAAGUGGACCAGAGAAACACACGUUCUGGUAUAUUACCUGGUA [A35G G54C]	0.444
GUCCUCUUUCACGUGCGCGUGAAAGAGAGAAGUGCACCAGAGAAACACACGUUGUGGUAUAUUAACUGGUA [A35C C65A]	1.08
GUCCUCUUUCACGUGCGCGUGAAAGAGAGAAGUGCACCAGAGCAACACACGUUGUGGUAUAUUACCUGGUA [A35C A43C]	0.0885
GUCCUCUUUCACGUGCGCGUGAAAGAGAGAAGUGGACCAGAGAAACACACGUAGUGGUAUAUUACCUGGUA [A35G U53A]	1.25
GUCCUCUUUCACGUGCGCGUGAAAGAGAGAAGUGGACCAGAGAAACACACGGUGUGGUAUAUUACCUGGUA [A35G U52G]	0.97
GUCCUCUUUCACGUGCGCGUGAAAGAGAGAAGUGCACCAGAGAAACACACGUUGUGGUAUAUUACCUUGUA [A35C G68U]	0.226
GUCCUCUUUCACGUGCGCGUGAAAGAGAGAAGUGCACCAUAGAAACACACGUUGUGGUAUAUUACCUGGUA [A35C G40U]	0.149
GUCCUCUUUCACGUGCGCGUGAAAGAGAGAAGUGCACCAGAGAAACACACGUUGUGGCAUAUUACCUGGUA [A35C U58C]	0.798
GUCCUCUUUCACGUGCGCGUGAAAGAGAGAAGUGCACCAGAGAAACACACGUUGUGAUAUAUUACCUGGUA [A35C G57A]	0.0715
GUCCUCUUUCACGUGCGCGUGAAAGAGAGAAGUUAACCAGAGAAACACACGUUGUCGUAUAUUACCUGGUA [G34U G56C]	0.409
GUCCUCUUUCACGUGCGCGUGAAAGAGAGAAGUGGACCAGAGAAACACACGUUGUGGUAGAUUACCUGGUA [A35G U60G]	0.443
GUCCUCUUUCACGUGCGCGUGAAAGAGAGAAGUGCACCAGAGAAACACACGUUGUGGUACAUUACCUGGUA [A35C U60C]	1.14
GUCCUCUUUCACGUGCGCGUGAAAGAGAGAAGUGCACCAGAGAAACACACGUUGUGGUAAAUUACCUGGUA [A35C U60A]	0.664
GUCCUCUUUCACGUGCGCGUGAAAGAGAGAAGUGCACCAGAGAAACACACGUUGUGGUAGAUUACCUGGUA [A35C U60G]	0.649
GUCCUCUUUCACGUGCGCGUGAAAGAGAGAAGUGCACCAGAGAGACACACGUUGUGGUAUAUUACCUGGUA [A35C A44G]	0.0678
GUCCUCUUUCACGUGCGCGUGAAAGAGAGAAGUGCACCAGAGAAACACACGUUGUGGUGUAUUACCUGGUA [A35C A59G]	0.124
GUCCUCUUUCACGUGCGCGUGAAAGAGAGAAGUGCACCAGAGAAACACACGUUGUGGUUUAUUACCUGGUA [A35C A59U]	0.105
GUCCUCUUUCACGUGCGCGUGAAAGAGAGAAGUGGACCAGAGAAACACACGUUGUGGUAUAGUACCUGGUA [A35G U62G]	0.139
GUCCUCUUUCACGUGCGCGUGAAAGAGAGAAGUGCACCAGAGAAACACACGUUGGGGUAUAUUACCUGGUA [A35C U55G]	0.27
GUCCUCUUUCACGUGCGCGUGAAAGAGAGAAGUGCACCAGAGAAACACACGUUGAGGUAUAUUACCUGGUA [A35C U55A]	0.177
GUCCUCUUUCACGUGCGCGUGAAAGAGAGAAGUGGACCAGAGAAACACACGUUGUGGUAUAUUACCUCGUA [A35G G68C]	0.236
GUCCUCUUUCACGUGCGCGUGAAAGAGAGAAGUGCACCAGAGAAAAACACGUUGUGGUAUAUUACCUGGUA [A35C C46A]	0.0748
GUCCUCUUUCACGUGCGCGUGAAAGAGAGAAGUGGACCAGAGAAACACACGUUGUGGUAUAUUACCUGGUA [A35G]	0.931
GUCCUCUUUCACGUGCGCGUGAAAGAGAGAAGUGCACCAGAGAAACACACGUUGUGGUAUAUUACCUGGUA [A35C]	1.02
GUCCUCUUUCACGUGCGCGUGAAAGAGAGAAGUGCACCAGAGAAACACACGUUGUGGUAUAAUACCUGGUA [A35C U62A]	0.226

Variant	self-cleavage
GUCCUCUUUCACGUGCGCGUGAAAGAGAGAAGUGCACCAGAGAAACACACGUUGUGGUAUACUACCUGGUA [A35C U62C]	0.103
GUCCUCUUUCACGUGCGCGUGAAAGAGAGAAGUGCACCAGAGAAACACACGUUGUGGUAUAGUACCUGGUA [A35C U62G]	0.172
GUCCUCUUUCACGUGCGCGUGAAAGAGAGAAGUUAACCAGAGAAACACACGUUGUGGUAUAUUACCCGGUA [G34U U67C]	0.976
GUCCUCUUUCACGUGCGCGUGAAAGAGAGAAGUUAACCAGAGAAACACACGUUGUGGUAUAUUACCAGGUA [G34U U67A]	0.876
GUCCUCUUUCACGUGCGCGUGAAAGAGAGAAGUGCACCAGAGAAACACACGUUGUGGUAUAUUACCUGGUG [A35C A71G]	0.422
GUCCUCUUUCACGUGCGCGUGAAAGAGAGAAGUUAAUCAGAGAAACACACGUUGUGGUAUAUUACCUGGUA [G34U C37U]	1.59
GUCCUCUUUCACGUGCGCGUGAAAGAGAGAAGUGGACCAGAGAAACACACCUUGUGGUAUAUUACCUGGUA [A35G G51C]	0.689
GUCCUCUUUCACGUGCGCGUGAAAGAGAGAAGUGGACCAGAGAAACACACGUUGUGGUAUAUUACCUGGUG [A35G A71G]	0.542
GUCCUCUUUCACGUGCGCGUGAAAGAGAGAAGUGGACCAGAGAAACACACGUUGUGGUAUAUUACCUGGUC [A35G A71C]	1.16
GUCCUCUUUCACGUGCGCGUGAAAGAGAGAAGUGGACCAGAGAAACACACGUUGUGGUAUAUUCCCUGGUA [A35G A64C]	0.174
GUCCUCUUUCACGUGCGCGUGAAAGAGAGAAGUGCACCAGAGAAACACACGUUUUGGUAUAUUACCUGGUA [A35C G54U]	0.56
GUCCUCUUUCACGUGCGCGUGAAAGAGAGAAGUGCACCAGAGAAACACACGUUAUGGUAUAUUACCUGGUA [A35C G54A]	0.483
GUCCUCUUUCACGUGCGCGUGAAAGAGAGAAGUGGACCAGAGAAACACACGUUGUGCUAUAUUACCUGGUA [A35G G57C]	0.268
GUCCUCUUUCACGUGCGCGUGAAAGAGAGAAGUGGACAAGAGAAACACACGUUGUGGUAUAUUACCUGGUA [A35G C38A]	0.162
GUCCUCUUUCACGUGCGCGUGAAAGAGAGAAGUUAACCAGAGAAACACACGUUGUGGUAGAUUACCUGGUA [G34U U60G]	1.34
GUCCUCUUUCACGUGCGCGUGAAAGAGAGAAGUUAACCAGAGAAACACACGUUGUGGUACAUUACCUGGUA [G34U U60C]	1.42
GUCCUCUUUCACGUGCGCGUGAAAGAGAGAAGUGGACCAGAGAAACACACGUUGUGGCAUAUUACCUGGUA [A35G U58C]	1.11
GUCCUCUUUCACGUGCGCGUGAAAGAGAGAAGUGGACCAGAGAAACACACGUUGUGGUAUAUCACCUGGUA [A35G U63C]	0.233
GUCCUCUUUCACGUGCGCGUGAAAGAGAGAAGUGGACCAGAGAAACACACGUUGUGGUAUAUAACCUGGUA [A35G U63A]	0.232
GUCCUCUUUCACGUGCGCGUGAAAGAGAGAAGUGGACCAGAGAAACACACGUUGUGGUAUGUUACCUGGUA [A35G A61G]	0.185
GUCCUCUUUCACGUGCGCGUGAAAGAGAGAAGUUAACCAGAAAAACACACGUUGUGGUAUAUUACCUGGUA [G34U G42A]	0.883
GUCCUCUUUCACGUGCGCGUGAAAGAGAGAAGUGCACCAGAGAAACACACGUUGUGGUAUAUGACCUGGUA [A35C U63G]	0.286
GUCCUCUUUCACGUGCGCGUGAAAGAGAGAAGUUAACCAGAGAAACAUACGUUGUGGUAUAUUACCUGGUA [G34U C48U]	0.695
GUCCUCUUUCACGUGCGCGUGAAAGAGAGAAGUUAACCAGAGAAACACACGUUGUGGAAUAUUACCUGGUA [G34U U58A]	1.5

Reference: the RNAGym collection of RNA variant scans (doi:10.7554/elife.80360)
